B1: Protein phosphatase 2C 16 (Arabidopsis thaliana (Mouse-ear cress)), Q9CAJ0 (parent)
chain: MEEMTPAVAMTLSLAANTMCESSPVEITQLKNVTDAADLLSDSENQSFCNGGTECTMEDVSELEEVGEQDLLKTLSDTRSGSSNVFDEDDVLSVVEDNSAVISEGLLVVDAGSELSLSNTAMEIDNGRVLATAIIVGESSIEQVPTAEVLIAGVNQDTNTSEVVIRLPDENSNHLVKGRSVYELDCIPLWGTVSIQGNRSEMEDAFAVSPHFLKLPIKMLMGDHEGMSPSLTHLTGHFFGVYDGHGGHKVADYCRDRLHFALAEEIERIKDELCKRNTGEGRQVQWDKVFTSCFLTVDGEIEGKIGRAVVGSSDKVLEAVASETVGSTAVVALVCSSHIVVSNCGDSRAVLFRGKEAMPLSVDHKPDREDEYARIENAGGKVIQWQGARVFGVLAMSRSIGDRYLKPYVIPEPEVTFMPRSREDECLILASDGLWDVMNNQEVCEIARRRILMWHKKNGAPPLAERGKGIDPACQAAADYLSMLALQKGSKDNISIIVIDLKAQRKFKTRT
partner: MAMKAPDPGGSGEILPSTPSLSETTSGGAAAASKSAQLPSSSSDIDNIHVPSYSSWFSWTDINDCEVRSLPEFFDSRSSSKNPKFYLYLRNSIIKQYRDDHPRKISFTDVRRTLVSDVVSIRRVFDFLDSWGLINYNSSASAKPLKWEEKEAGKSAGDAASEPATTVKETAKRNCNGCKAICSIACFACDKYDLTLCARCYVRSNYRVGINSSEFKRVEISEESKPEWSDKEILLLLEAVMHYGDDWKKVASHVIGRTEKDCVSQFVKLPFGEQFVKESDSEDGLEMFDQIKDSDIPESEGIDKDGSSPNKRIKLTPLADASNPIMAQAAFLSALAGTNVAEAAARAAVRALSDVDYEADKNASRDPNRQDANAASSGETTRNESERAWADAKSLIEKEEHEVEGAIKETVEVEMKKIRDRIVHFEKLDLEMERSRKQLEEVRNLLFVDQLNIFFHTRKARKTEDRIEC

Variants of B1 are the subject of the experiment. Particulars: with swi3b_arath SWI3B.
Turning to MEEMTPAVAMTLSLAANTMCESSPVEITQLKNVTDAADLLSDSENQSFCNGGTECTMEDVSELEEVGEQDLLKTLSDTRSGSSNVFDEDDVLSVVEDNSAVISEGLLVVDAGSELSLSNTAMEIDNGRVLATAIIVGESSIEQVPTAEVLIAGVNQDTNTSEVVIRLPDENSNHLVKGRSVYELDCIPLWGTVSIQGNRSEMEDAFAVSPHFLKLPIKMLMGDHEGMSPSLTHLTGHFFGVYDGHDGHKVADYCRDRLHFALAEEIERIKDELCKRNTGEGRQVQWDKVFTSCFLTVDGEIEGKIGRAVVGSSDKVLEAVASETVGSTAVVALVCSSHIVVSNCGDSRAVLFRGKEAMPLSVDHKPDREDEYARIENAGGKVIQWQGARVFGVLAMSRSIGDRYLKPYVIPEPEVTFMPRSREDECLILASDGLWDVMNNQEVCEIARRRILMWHKKNGAPPLAERGKGIDPACQAAADYLSMLALQKGSKDNISIIVIDLKAQRKFKTRT [G246D], the “effect of a mutation on the interaction” value was “disrupting interaction”.

For the origin of these results see IntAct's records for PubMed 19033529.
